B2: PgBamH (PGN_1735) with C-terminal 7His tag (natural protein, P. gingivalis, UniProt B2RLK9 19-455, looked up)
chain: CDDDLSPIGGSIQPPSDPVSARVDTLEFSVKTIPMGDIYNRTNYTLLGDLTDPEYGDLKADYIMQFKSPRNFKFKYPPKDGKIDSVKLSINYDSWAGDSTSIMKVSIYKINKAIPPSYYSTQELASLLDETQIIASQTFKAGNDSAFHRVRIPLPNEIGQKIYDLSVNNPSVFDTQESFYNNVLGGLYVTTTTGTGVVLSVYNTQMAIFYSYKVAADSTATASETFVNTSESYQVNHIKNSQISHLLQENDSLSCVKSPAGVMTQLTISKEQFTDAFTSNLSSSLAWQIGEAQFNISASKPSEGLMLSPPSYLLLLPQDSVRNFFEQEQTELMQPRTAFLSTIYNIKKREYRFSNISRLLMEHIKNNTEKTPEGKPYITKDLVLVLLPVKRQVAGASNSLYTSQLNNFMFPSGVKLQLGKKNKTARIGVYSMTYTDN
modifications: tri-acylated lipid anchor; O-glycosylation (7 sites)
notes: BamH (PGN_1735) of Porphyromonas gingivalis strain ATCC 33277, surface-exposed lipoprotein; 88 residues shorter than BtBamH; also called His-tagged BamH; source: C-terminally His-tagged by homologous recombination in P. gingivalis; membranes solubilised in 1% DDM; not shown: His7, C-terminal, kept

Experiments:
[1] = target: T1, PgBamA, BamA of P. gingivalis ATCC 33277 (P. gingivalis (endogenous in P. …, UniProt B2RHH3 20-891)); assay: cryo-EM structure; PgBAM complex co-purified through C-terminally His-tagged BamH from P. gingivalis membranes, in DDM, 4.9 mg/ml; 3.24 Å class without periplasmic density; AF2 models docked and refined; details: both partners purified
T1 construct: BamA of Porphyromonas gingivalis strain ATCC 33277; Periplasmic part only very weak, not modelled, possibly clipped by gingipains; EL3 (39 residues) has no density; source: endogenous, P. gingivalis expressing His-tagged BamH, membranes solubilised in 1% DDM
T1 sequence (looked up): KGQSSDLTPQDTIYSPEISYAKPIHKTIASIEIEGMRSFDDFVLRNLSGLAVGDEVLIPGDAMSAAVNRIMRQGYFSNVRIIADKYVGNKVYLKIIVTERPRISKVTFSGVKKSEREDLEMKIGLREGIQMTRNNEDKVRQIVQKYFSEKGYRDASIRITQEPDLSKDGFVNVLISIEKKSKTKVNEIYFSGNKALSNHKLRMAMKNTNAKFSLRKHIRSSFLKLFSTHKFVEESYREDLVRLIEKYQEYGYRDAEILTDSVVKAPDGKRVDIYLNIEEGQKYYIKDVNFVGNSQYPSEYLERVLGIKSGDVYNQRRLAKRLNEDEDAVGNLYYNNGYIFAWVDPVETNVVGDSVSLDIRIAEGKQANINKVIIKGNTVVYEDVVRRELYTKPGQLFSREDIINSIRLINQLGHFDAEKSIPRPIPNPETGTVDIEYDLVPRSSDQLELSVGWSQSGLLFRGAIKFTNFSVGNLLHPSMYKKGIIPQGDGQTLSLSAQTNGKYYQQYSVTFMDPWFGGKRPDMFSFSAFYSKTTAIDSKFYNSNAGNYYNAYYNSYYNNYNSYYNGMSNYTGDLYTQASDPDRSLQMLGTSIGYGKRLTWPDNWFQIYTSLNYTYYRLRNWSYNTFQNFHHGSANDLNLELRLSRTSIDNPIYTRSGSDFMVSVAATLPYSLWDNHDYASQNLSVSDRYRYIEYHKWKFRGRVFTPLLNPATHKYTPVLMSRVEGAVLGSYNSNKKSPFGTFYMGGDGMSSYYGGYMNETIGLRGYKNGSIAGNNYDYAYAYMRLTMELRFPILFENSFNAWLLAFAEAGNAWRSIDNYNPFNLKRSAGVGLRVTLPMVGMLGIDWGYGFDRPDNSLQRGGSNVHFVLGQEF

[2] = target: B2; assay: as above; details: both partners purified
[3] = target: T2, BtBamH (Bt4306) (B. thetaiotaomicron (endogenous in B. …, UniProt Q89ZS0 18-542, tri-acylated lipid anchor on the N-terminal cysteine)); O-glycosylation (Ser309 among the sites)); assay: cryo-EM structure; BtBAM complex co-purified through BamAhis from native membranes, in DDM, 8 mg/ml; two 3D classes (3.28 Å and 3.46 Å); AF2 models docked and refined; details: both partners purified
T2 sequence (looked up): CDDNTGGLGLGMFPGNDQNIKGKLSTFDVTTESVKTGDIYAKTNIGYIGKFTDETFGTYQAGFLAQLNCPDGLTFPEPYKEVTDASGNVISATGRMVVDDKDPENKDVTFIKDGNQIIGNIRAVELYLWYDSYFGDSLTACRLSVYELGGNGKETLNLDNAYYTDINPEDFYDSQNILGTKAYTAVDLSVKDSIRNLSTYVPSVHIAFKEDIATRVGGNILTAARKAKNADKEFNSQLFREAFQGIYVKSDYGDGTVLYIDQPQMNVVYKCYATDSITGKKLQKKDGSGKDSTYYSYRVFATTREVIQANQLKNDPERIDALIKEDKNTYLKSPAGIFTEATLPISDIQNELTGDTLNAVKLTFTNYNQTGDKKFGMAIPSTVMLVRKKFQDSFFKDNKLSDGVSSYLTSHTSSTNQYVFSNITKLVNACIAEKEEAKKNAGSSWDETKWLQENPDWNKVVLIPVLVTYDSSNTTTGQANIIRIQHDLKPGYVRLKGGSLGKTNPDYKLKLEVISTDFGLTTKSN

[4] = target: T3, BtBamA (Bt3725), B. thetaiotaomicron BamA with N-terminal His7 tag (B. thetaiotaomicron, UniProt Q8A1E1 20-885); assay: affinity purification with mass spectrometry; chromosomally His7-tagged BamA as bait; B. thetaiotaomicron total membranes solubilised in TBS with 0.75% DDM and 0.75% DM; Ni IMAC, SEC in 10 mM HEPES-NaOH, 100 mM NaCl, 0.03% DDM pH 7.5; SDS-PAGE bands of pooled SEC peak fractions identified by peptide fingerprinting; IMAC elutions by quantitative proteomics against untagged wild-type cells; details: partners not purified
T3 sequence (looked up): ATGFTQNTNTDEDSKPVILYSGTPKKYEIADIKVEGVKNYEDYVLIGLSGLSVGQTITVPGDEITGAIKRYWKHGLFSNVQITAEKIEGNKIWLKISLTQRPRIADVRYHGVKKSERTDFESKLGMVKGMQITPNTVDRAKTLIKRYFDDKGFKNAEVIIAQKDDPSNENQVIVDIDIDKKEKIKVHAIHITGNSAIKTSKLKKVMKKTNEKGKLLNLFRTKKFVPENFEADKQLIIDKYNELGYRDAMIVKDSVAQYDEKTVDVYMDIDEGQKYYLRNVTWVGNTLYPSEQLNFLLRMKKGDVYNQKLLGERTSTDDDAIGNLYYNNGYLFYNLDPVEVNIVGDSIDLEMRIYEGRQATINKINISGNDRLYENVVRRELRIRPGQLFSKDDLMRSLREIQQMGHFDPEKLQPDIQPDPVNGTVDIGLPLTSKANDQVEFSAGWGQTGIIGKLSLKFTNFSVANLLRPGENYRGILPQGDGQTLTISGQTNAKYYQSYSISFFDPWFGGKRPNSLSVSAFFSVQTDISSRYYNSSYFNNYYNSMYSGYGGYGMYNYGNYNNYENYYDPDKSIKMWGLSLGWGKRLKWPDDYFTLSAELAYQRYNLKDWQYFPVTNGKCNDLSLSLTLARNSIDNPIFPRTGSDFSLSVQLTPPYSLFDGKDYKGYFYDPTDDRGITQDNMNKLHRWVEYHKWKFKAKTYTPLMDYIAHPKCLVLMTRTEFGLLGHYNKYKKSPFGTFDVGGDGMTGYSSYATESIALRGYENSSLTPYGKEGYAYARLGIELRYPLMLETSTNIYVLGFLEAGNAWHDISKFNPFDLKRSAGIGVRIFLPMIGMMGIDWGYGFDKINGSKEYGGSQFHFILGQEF

B1: PgBamG, BamG of P. gingivalis ATCC 33277 (natural protein, UniProt B2RKY8 31-434, looked up)
chain: QNNNFTESPYTRFGLGRLGERTTISGHSMGGLGVGLRQGTYVNAVNPASYSAVDSMTFIFDFGASTGITWYAENGKKDNRKMGNIEYFAMLFPISKSIAMSAGVLPYSASGYQFGSVDQVEGGSVQYTRKYLGTGNLNDLYVGIGATPFKNFSIGANASFLFGRFTHSRQVIFSTEAPYNPVHLSTLYLKAAKFDFGMQYHLPLKSDRSLVIGAVYSPRVKMHSELTQIKNQVQNGVVVESETQEYIKGMDYYTLPHTLGIGFSYEKKDKLLLGADVQYSKWKGEKFYKSDCKFQDRIRVSLGGEIMPDINAVGIWPKVRYRFGLHGENSYLKVPTKGGVYQGYHIVGAVFGIGIPLNDRRSFVNVSLEYDRLIPKEGMIKENALKLTFGLTFNESWFKKLKLN
modifications: O-glycosylation (Ser85)
notes: BamG of Porphyromonas gingivalis strain ATCC 33277; source: endogenous, P. gingivalis expressing His-tagged BamH, membranes solubilised in 1% DDM
B1: binds [1]; binds [2].

B2: binds [1].

B3: PgBamJ, BamJ of P. gingivalis ATCC 33277 (natural protein, UniProt B2RH82 25-185, looked up)
chain: CEKRPNEEKQRRHDNEVAFNAYADSTNFKKVSVDGSTAYVYMRWITNGTGTEHPIATSRVEVHYQTYRLVGNIMVDGNYNSEKPARITLYRNEKDKSITGFRIALQNMVIGDECEFIVPWYLAYGSKGVPASSANLVPIPSYSALRFIVKLSGIIPEEDKK
notes: BamJ (peptidyl-prolyl isomerase) of Porphyromonas gingivalis strain ATCC 33277; source: endogenous, P. gingivalis expressing His-tagged BamH, membranes solubilised in 1% DDM
B3: binds [2].

B4: BtBamK (Bt3949) (natural protein, UniProt Q8A0S2 21-214, looked up)
chain: CDDSKTYAEMLEDEKNAVNKFIKDKGIRIISQDEFEKNDTVTNLERNEYVALSDGVYMQIVDRGSAENKTDTFANNNEICVRYIEEDIMTRDTTCFNVFLEEWGDANQLYTNPAVFRYVAEGSYVYGTFIQMDYYWASYYQSTAVPAGWLLALPFVRNYAHVRLIVPSKVGHSSAQQYVNPYYYDIWTFSKALN
modifications: lipid anchor cysteine; O-glycosylation sites
B4: binds [3].

B5: BtBamI (Bt3727) (natural protein, UniProt Q8A1D9 22-493, looked up)
chain: CLDNDNEVNYSPDATIRAFELDTIGYGVNYKFTIDQVSRLIYNVDSLPVNADTIINSILIKTLTTASGIVTMKDQNDQDSIVNINDSIDLTKYVNATEKNNFLVLKVWAPNMEVQNEYKVNIRMHTMVPDSLSWGKDPIANNPVRNTAEKQKVVTLGDKILLFAQNNEIYSTAIPAGSPTDRLNYGQKWDKETTGKLPDGADVTSIIRFVDKLYLLTKNKEVYNSNDGLTWTKDEVLNSDGVSVTNLITSFSDSDGSNHKKINGIAGIVEINGEKYFSFAEKDVTWEKDIDKLTVVPAEFPINNLSADVYATESGTLNAIVVGNTEDGLDNDTATVVWASEDGKAWIPMEIPSNNNCPKLVDPSIIHYNDAFYICGKETKDDAKGFQKFYTSPTLLVWKGVDRMFMLPGILPPVKLEGGVTQHPSLHESSFKGKEVNYTMVVDRNHYIWMVGGQGIDKIWRGRVNKLGFLIQ
modifications: lipid anchor cysteine; O-glycosylation at 10 sites (Ser67 among them)
B5: binds [3].

B6: BtBamD (Bt0573) (natural protein, UniProt Q8AA92 18-267, looked up)
chain: CGEYNKLLKSTDYEYKYEAAKNYFAKGQYNRSATLLNELITILKGTDKAEESLYMLGMSYYNQKDYQTAAQTFITYFNTYPRGTFTELARFHAGKSLFLDTPEPRLDQSSTYQAIQQLQMFMEYFPNSTKKQEAQDMIFALQDKLVLKELYSAKLYYNLGNYLGNNYESCVITAQNALKDYPYTDYREELSILILRARHEMAIYSVEDKKMDRYRETIDEYYAFKNEFPESKYLKEAEKIFNESQKVIKD
B6: binds [4].

B7: PgBamK, BamK of P. gingivalis ATCC 33277 (natural protein, UniProt B2RK12 24-203, looked up)
chain: CKKSDIKSLKEMKKDERKAIESFINRMGFTIKEGHEGQSEFDPDIMYHFDNDLYMQVLDKGKEPPVLNKTKINVRMEGFMFNRERDSIYVFNSLTSGGFQESVFRYIYKYNDGDIHFELIKCTTGSNLDMFVCEGVAFPMTMLGNKARVRLIVPFRIGPESLYSRGLTGYYKEVEYVFRD
notes: BamK (peptidyl-prolyl isomerase) of Porphyromonas gingivalis strain ATCC 33277; source: endogenous, P. gingivalis expressing His-tagged BamH, membranes solubilised in 1% DDM
B7: binds [2].
